Reference: patent US20140087995A1 (published 2014)
Numbered stars: 1 amine (or outer) side, 2 acyl side, 3 side chain; on linkers, the order of the positions; unused ones are H or OH. Bridge positions count the residues as written; N and C are the ends. Side chains are listed from the residue outwards. Ends that are not written are not given here. * marks the point of attachment. C20 diacid = O=C(O)CCCCCCCCCCCCCCCCCCC(=O)*; γGlu = O=C(O)[C@H](CCC(=O)[*:2])N[*:1]; AEEA = NCCOCCOCC(=O)O

How the values were obtained:
[1] = target: T1, rat amylin receptor (rat calcitonin receptor + rat RAMP 3) (rat, UniProt P32214 25-516; Q9JJ73 23-147); assay: SPA competition vs 125I-rat amylin, membranes of BHK cells with rat calcitonin receptor + rat RAMP3 (Assay VI)
T1 construct: whole, on cells; Membranes prepared from transiently transfected BHK tk'ts 13 cells (Assay VI); also called rAmylin-R; rAmylin
T1 sequence (looked up) 1: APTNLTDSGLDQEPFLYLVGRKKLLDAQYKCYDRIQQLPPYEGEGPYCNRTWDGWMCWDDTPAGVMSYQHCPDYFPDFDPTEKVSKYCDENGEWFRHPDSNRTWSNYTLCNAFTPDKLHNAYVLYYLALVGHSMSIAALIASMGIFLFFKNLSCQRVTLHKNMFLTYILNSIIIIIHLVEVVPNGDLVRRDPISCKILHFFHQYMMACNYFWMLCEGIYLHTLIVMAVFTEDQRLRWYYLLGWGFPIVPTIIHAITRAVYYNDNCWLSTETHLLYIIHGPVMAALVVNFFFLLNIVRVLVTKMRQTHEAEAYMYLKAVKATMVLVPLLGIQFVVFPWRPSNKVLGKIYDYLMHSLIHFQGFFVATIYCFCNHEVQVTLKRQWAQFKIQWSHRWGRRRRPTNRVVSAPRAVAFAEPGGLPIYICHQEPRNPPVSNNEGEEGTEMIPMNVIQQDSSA
T1 sequence (looked up) 2: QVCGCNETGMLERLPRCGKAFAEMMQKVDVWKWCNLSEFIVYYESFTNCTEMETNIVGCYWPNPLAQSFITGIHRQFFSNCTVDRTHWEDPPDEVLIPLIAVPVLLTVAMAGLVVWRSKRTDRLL

[2] = target: T2, rat calcitonin receptor (rat, UniProt P32214 25-516); assay: SPA competition vs 125I-calcitonin, membranes of BHK cells with rat calcitonin receptor (Assay VIII)
T2 construct: whole, on cells; Membranes prepared from transiently transfected BHK tk'ts 13 cells (Assay VIII); also called rCTR; rCT
T2 sequence (looked up): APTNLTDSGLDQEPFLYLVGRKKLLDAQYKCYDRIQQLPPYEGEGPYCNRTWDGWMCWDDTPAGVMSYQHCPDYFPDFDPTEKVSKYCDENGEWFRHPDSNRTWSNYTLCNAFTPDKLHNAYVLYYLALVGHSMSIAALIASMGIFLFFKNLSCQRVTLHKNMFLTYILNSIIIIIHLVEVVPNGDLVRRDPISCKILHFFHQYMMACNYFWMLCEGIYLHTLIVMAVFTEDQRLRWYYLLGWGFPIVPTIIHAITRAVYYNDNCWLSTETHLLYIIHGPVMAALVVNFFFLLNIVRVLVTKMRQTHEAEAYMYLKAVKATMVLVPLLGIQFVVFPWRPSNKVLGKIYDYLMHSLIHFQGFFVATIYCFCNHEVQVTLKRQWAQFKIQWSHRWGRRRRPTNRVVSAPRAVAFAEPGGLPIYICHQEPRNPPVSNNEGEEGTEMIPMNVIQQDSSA

[3] = target: T2, rat calcitonin receptor; assay: ratio of binding IC50s: rat calcitonin receptor / rat amylin receptor (reference)
[4] = target: T3, human calcitonin receptor (human, UniProt P30988 25-474); assay: ratio of binding IC50s: human calcitonin receptor / human amylin receptor (reference)
T3 construct: whole, on cells; Membranes prepared from a stably transfected BHK cell line (Assay VII); also called hCTR; hCT
T3 sequence (looked up): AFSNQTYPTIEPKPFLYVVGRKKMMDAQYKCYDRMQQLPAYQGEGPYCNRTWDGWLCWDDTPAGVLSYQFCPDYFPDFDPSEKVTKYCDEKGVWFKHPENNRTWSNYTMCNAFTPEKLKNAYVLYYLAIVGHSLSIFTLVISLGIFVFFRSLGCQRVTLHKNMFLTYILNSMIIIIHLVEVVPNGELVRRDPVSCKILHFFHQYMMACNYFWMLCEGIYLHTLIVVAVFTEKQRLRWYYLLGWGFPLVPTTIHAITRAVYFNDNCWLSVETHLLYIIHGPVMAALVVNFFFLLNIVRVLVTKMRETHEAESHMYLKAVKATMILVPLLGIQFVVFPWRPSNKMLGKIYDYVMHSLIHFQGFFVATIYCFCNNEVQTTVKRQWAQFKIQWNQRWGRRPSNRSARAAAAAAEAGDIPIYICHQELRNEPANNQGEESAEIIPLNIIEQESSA
Procedure, shortened: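 Scintillation proximity competition binding on cell membranes at 35 ng/μL with SPA beads, in 50 mM Hepes pH 7.4, 1 mM CaCl2, 5 mM MgCl₂, 0.1% OA, 0.02% Tween20. Incubated 120 min at 25° C with shaking. IC₅₀ from one-site competition fit.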

B1: N^ε1-[(4S)-4-carboxy-4-[[(4S)-4-carboxy-4-(19-carboxynonadecanoylamino)butanoyl]amino]butanoyl]-[Glu14,Arg17,Pro21,Pro27,Arg35]-h-amylin (peptide)
peptide: K([γGlu-γGlu-C20 diacid])CNTATCATQRLAEFLRHSSPNFGAIPSSTNVGSRTY-NH2
modifications: disulfide 2-7; N-terminus assumed
SMILES: CC[C@H](C)[C@H](NC(=O)[C@H](C)NC(=O)CNC(=O)[C@H](Cc1ccccc1)NC(=O)[C@H](CC(N)=O)NC(=O)[C@@H]1CCCN1C(=O)[C@H](CO)NC(=O)[C@H](CO)NC(=O)[C@H](Cc1c[nH]cn1)NC(=O)[C@H](CCCNC(=N)N)NC(=O)[C@H](CC(C)C)NC(=O)[C@H](Cc1ccccc1)NC(=O)[C@H](CCC(=O)O)NC(=O)[C@H](C)NC(=O)[C@H](CC(C)C)NC(=O)[C@H](CCCNC(=N)N)NC(=O)[C@H](CCC(N)=O)NC(=O)[C@@H](NC(=O)[C@H](C)NC(=O)[C@@H]1CSSC[C@H](NC(=O)[C@@H](N)CCCCNC(=O)CC[C@H](NC(=O)CC[C@H](NC(=O)CCCCCCCCCCCCCCCCCCC(=O)O)C(=O)O)C(=O)O)C(=O)N[C@@H](CC(N)=O)C(=O)N[C@@H]([C@@H](C)O)C(=O)N[C@@H](C)C(=O)N[C@@H]([C@@H](C)O)C(=O)N1)[C@@H](C)O)C(=O)N1CCC[C@H]1C(=O)N[C@@H](CO)C(=O)N[C@@H](CO)C(=O)N[C@H](C(=O)N[C@@H](CC(N)=O)C(=O)N[C@H](C(=O)NCC(=O)N[C@@H](CO)C(=O)N[C@@H](CCCNC(=N)N)C(=O)N[C@H](C(=O)N[C@@H](Cc1ccc(O)cc1)C(N)=O)[C@@H](C)O)C(C)C)[C@@H](C)O
notes: Analogue of human amylin; also called compound 89
- IC50 [1]: 2.37 nM
- IC50 [2]: 115 nM
- Ratio rCT/rAmylin binding [3]: 48.8
- Ratio hCT/hAmylin binding [4]: 28

B2: N^ε1-[(4S)-4-carboxy-4-[[(4S)-4-carboxy-4-(19-carboxynonadecanoylamino)butanoyl]amino]butanoyl]-[Glu14,Arg17,Pro21,Pro27,His34]-h-amylin (peptide)
peptide: K([γGlu-γGlu-C20 diacid])CNTATCATQRLAEFLRHSSPNFGAIPSSTNVGHNTY-NH2
modifications: disulfide 2-7; N-terminus assumed
SMILES: CC[C@H](C)[C@H](NC(=O)[C@H](C)NC(=O)CNC(=O)[C@H](Cc1ccccc1)NC(=O)[C@H](CC(N)=O)NC(=O)[C@@H]1CCCN1C(=O)[C@H](CO)NC(=O)[C@H](CO)NC(=O)[C@H](Cc1c[nH]cn1)NC(=O)[C@H](CCCNC(=N)N)NC(=O)[C@H](CC(C)C)NC(=O)[C@H](Cc1ccccc1)NC(=O)[C@H](CCC(=O)O)NC(=O)[C@H](C)NC(=O)[C@H](CC(C)C)NC(=O)[C@H](CCCNC(=N)N)NC(=O)[C@H](CCC(N)=O)NC(=O)[C@@H](NC(=O)[C@H](C)NC(=O)[C@@H]1CSSC[C@H](NC(=O)[C@@H](N)CCCCNC(=O)CC[C@H](NC(=O)CC[C@H](NC(=O)CCCCCCCCCCCCCCCCCCC(=O)O)C(=O)O)C(=O)O)C(=O)N[C@@H](CC(N)=O)C(=O)N[C@@H]([C@@H](C)O)C(=O)N[C@@H](C)C(=O)N[C@@H]([C@@H](C)O)C(=O)N1)[C@@H](C)O)C(=O)N1CCC[C@H]1C(=O)N[C@@H](CO)C(=O)N[C@@H](CO)C(=O)N[C@H](C(=O)N[C@@H](CC(N)=O)C(=O)N[C@H](C(=O)NCC(=O)N[C@@H](Cc1c[nH]cn1)C(=O)N[C@@H](CC(N)=O)C(=O)N[C@H](C(=O)N[C@@H](Cc1ccc(O)cc1)C(N)=O)[C@@H](C)O)C(C)C)[C@@H](C)O
notes: Analogue of human amylin; also called compound 87
- IC50 [1]: 2.07 nM
- IC50 [2]: 94.5 nM
- Ratio rCT/rAmylin binding [3]: 45.6
- Ratio hCT/hAmylin binding [4]: 35.6

B3: N^ε1-[2-[2-[2-(19-carboxynonadecanoylamino)ethoxy]ethoxy]acetyl]-[His14,Arg17,Pro21,Pro27]-h-amylin (peptide)
peptide: K([AEEA-C20 diacid])CNTATCATQRLAHFLRHSSPNFGAIPSSTNVGSNTY-NH2
modifications: disulfide 2-7; N-terminus assumed
SMILES: CC[C@H](C)[C@H](NC(=O)[C@H](C)NC(=O)CNC(=O)[C@H](Cc1ccccc1)NC(=O)[C@H](CC(N)=O)NC(=O)[C@@H]1CCCN1C(=O)[C@H](CO)NC(=O)[C@H](CO)NC(=O)[C@H](Cc1c[nH]cn1)NC(=O)[C@H](CCCNC(=N)N)NC(=O)[C@H](CC(C)C)NC(=O)[C@H](Cc1ccccc1)NC(=O)[C@H](Cc1c[nH]cn1)NC(=O)[C@H](C)NC(=O)[C@H](CC(C)C)NC(=O)[C@H](CCCNC(=N)N)NC(=O)[C@H](CCC(N)=O)NC(=O)[C@@H](NC(=O)[C@H](C)NC(=O)[C@@H]1CSSC[C@H](NC(=O)[C@@H](N)CCCCNC(=O)COCCOCCNC(=O)CCCCCCCCCCCCCCCCCCC(=O)O)C(=O)N[C@@H](CC(N)=O)C(=O)N[C@@H]([C@@H](C)O)C(=O)N[C@@H](C)C(=O)N[C@@H]([C@@H](C)O)C(=O)N1)[C@@H](C)O)C(=O)N1CCC[C@H]1C(=O)N[C@@H](CO)C(=O)N[C@@H](CO)C(=O)N[C@H](C(=O)N[C@@H](CC(N)=O)C(=O)N[C@H](C(=O)NCC(=O)N[C@@H](CO)C(=O)N[C@@H](CC(N)=O)C(=O)N[C@H](C(=O)N[C@@H](Cc1ccc(O)cc1)C(N)=O)[C@@H](C)O)C(C)C)[C@@H](C)O
notes: Analogue of human amylin; also called compound 90
- IC50 [1]: 0.246 nM
- IC50 [2]: 18.2 nM
- Ratio rCT/rAmylin binding [3]: 74.1
- Ratio hCT/hAmylin binding [4]: 42.2

B4: N^ε1-[(4S)-4-carboxy-4-(19-carboxynonadecanoylamino)butanoyl]-[His14,Arg17,Pro21,Pro27]-h-amylin (peptide)
peptide: K([γGlu-C20 diacid])CNTATCATQRLAHFLRHSSPNFGAIPSSTNVGSNTY-NH2
modifications: disulfide 2-7; N-terminus assumed
SMILES: CC[C@H](C)[C@H](NC(=O)[C@H](C)NC(=O)CNC(=O)[C@H](Cc1ccccc1)NC(=O)[C@H](CC(N)=O)NC(=O)[C@@H]1CCCN1C(=O)[C@H](CO)NC(=O)[C@H](CO)NC(=O)[C@H](Cc1c[nH]cn1)NC(=O)[C@H](CCCNC(=N)N)NC(=O)[C@H](CC(C)C)NC(=O)[C@H](Cc1ccccc1)NC(=O)[C@H](Cc1c[nH]cn1)NC(=O)[C@H](C)NC(=O)[C@H](CC(C)C)NC(=O)[C@H](CCCNC(=N)N)NC(=O)[C@H](CCC(N)=O)NC(=O)[C@@H](NC(=O)[C@H](C)NC(=O)[C@@H]1CSSC[C@H](NC(=O)[C@@H](N)CCCCNC(=O)CC[C@H](NC(=O)CCCCCCCCCCCCCCCCCCC(=O)O)C(=O)O)C(=O)N[C@@H](CC(N)=O)C(=O)N[C@@H]([C@@H](C)O)C(=O)N[C@@H](C)C(=O)N[C@@H]([C@@H](C)O)C(=O)N1)[C@@H](C)O)C(=O)N1CCC[C@H]1C(=O)N[C@@H](CO)C(=O)N[C@@H](CO)C(=O)N[C@H](C(=O)N[C@@H](CC(N)=O)C(=O)N[C@H](C(=O)NCC(=O)N[C@@H](CO)C(=O)N[C@@H](CC(N)=O)C(=O)N[C@H](C(=O)N[C@@H](Cc1ccc(O)cc1)C(N)=O)[C@@H](C)O)C(C)C)[C@@H](C)O
notes: Analogue of human amylin; also called compound 70
- IC50 [1]: 0.355 nM
- IC50 [2]: 34.2 nM
- Ratio rCT/rAmylin binding [3]: 96.5
- Ratio hCT/hAmylin binding [4]: 60.8
